According to publication PMC5705077 (Biochemistry, 2017):

Assays:
[1] = target: T1, MBP-Brh2^106–1075 (Ustilago maydis, UniProt Q8NJ74 106-1075); experiment: pull-down
T1 sequence (looked up): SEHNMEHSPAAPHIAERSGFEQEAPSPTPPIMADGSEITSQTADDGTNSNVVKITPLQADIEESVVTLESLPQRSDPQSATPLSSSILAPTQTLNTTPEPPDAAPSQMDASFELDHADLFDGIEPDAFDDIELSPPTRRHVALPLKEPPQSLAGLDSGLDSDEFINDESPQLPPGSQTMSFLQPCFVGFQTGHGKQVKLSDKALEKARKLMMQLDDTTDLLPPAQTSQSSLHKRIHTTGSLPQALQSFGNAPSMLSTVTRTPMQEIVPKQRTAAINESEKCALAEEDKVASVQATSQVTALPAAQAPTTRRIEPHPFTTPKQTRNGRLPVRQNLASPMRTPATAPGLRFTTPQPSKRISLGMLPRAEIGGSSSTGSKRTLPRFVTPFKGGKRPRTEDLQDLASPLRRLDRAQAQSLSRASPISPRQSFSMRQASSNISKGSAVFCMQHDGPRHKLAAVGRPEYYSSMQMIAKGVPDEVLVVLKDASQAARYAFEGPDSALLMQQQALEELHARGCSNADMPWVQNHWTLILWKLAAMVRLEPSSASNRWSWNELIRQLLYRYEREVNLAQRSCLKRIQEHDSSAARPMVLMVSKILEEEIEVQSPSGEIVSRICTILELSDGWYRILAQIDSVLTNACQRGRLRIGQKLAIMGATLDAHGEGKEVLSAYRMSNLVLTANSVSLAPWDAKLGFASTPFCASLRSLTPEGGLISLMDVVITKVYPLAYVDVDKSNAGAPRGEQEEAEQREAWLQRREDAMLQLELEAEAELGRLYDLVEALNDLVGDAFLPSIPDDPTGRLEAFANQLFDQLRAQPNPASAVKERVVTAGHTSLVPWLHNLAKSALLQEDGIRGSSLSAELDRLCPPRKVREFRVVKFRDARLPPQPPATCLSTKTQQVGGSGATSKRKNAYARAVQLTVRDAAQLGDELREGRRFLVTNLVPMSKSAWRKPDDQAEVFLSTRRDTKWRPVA

[2] = target: T1, MBP-Brh2^106–1075; experiment: pull-down; remark: listed apart in the source

B1: Rad51 (natural protein, UniProt Q99133 1-339, looked up)
chain: MSQNAQDPAQIGEDDMGEAFGPLPVSKLEEFGISSSDCKKLAESGYNTVESIAFTPKKQLLLVKGVSEAKADKILAEAARLVPMGFTTATEFHARRNELISITTGSKNLDAILGGGMETGSITELYGEFRTGKSQLCHTLAVTCQLPVDMGGGEGKCLYIDTENTFRPTRLLAVAERFGLNGEEVLDNVAYARAYNADHQLQLLMQASAMMAESRFSLLIVDSLTSLYRTDFSGRGELSARQMHLAKFLRGLMRLADEFGVAVVITNQVVAQVDGATAFTADAKKPIGGNIVAHASTTRLSLRKGRGNQRICRIADSPCLPEADAVFAIGPEGIIDPVD
fold Rad51 associated relative to the Brh2/Dss1 heterodimer [1]: ~10 fold | stoichiometry N [2]: ~2.2 Rad51 per Brh2 (mol:mol)
